Among the data in patent publication US20260217847A1 (published 2026) are EC50 values, retold here.

What all share (assay): ELISA
For orientation: ELISA stands for enzyme-linked immunosorbent assay.

Experiment [1] concerns the target T1, human recombinant TfR1 protein (amino acids 89-760) (human, UniProt P02786 89-760).
The target in experiment [2] is T1, human recombinant TfR1 protein (amino …). The source holds these as a separate data set.
Experiment [3] shares this target. This is another data set of the same source.

Read-outs that look alike come from different tables or passages of the source.

T1 sequence (P02786 89-760): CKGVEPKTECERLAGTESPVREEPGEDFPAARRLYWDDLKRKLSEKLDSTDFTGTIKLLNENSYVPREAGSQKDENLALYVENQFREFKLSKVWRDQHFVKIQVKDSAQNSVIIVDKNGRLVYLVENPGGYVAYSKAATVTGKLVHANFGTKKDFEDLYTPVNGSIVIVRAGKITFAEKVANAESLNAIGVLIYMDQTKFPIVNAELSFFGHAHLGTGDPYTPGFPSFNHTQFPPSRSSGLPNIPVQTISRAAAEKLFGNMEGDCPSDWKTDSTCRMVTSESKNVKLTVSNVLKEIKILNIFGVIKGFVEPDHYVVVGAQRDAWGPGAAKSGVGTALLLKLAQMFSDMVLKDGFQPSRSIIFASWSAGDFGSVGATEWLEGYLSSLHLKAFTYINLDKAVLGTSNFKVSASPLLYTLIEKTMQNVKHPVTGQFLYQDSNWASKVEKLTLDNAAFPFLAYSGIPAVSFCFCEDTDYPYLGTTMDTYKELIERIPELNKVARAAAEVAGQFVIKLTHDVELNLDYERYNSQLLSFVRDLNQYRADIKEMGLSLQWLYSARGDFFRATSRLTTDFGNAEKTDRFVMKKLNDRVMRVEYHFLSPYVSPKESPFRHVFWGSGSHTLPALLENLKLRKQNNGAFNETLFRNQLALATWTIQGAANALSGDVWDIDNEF

B1: anti-humanized TfR1 single-domain antibody-Fc fusion antibody 2H7-hFC1 (Fc fusion)
chain (part 1 of 2): ESGGGLVQPGESLRLSCVASGSIWSIYTMGWYRQAPGKQRDFVASITGDSTRTLESVKDRFIISRDNTKNTLYLQMNSLKPEDTAVYYCQAITSLGEYWGQGTQVTVSS
On to B1, for which the EC50 (usually the concentration that produces a half-maximal response) in experiment [1] came out at 0.0396 nM.

B2: anti-humanized TfR1 single-domain antibody-Fc fusion antibody 4D11-hFC1 (Fc fusion)
chain (part 1 of 2): ESGGGLVQPGESLRLSCVASGSIWSIYTMGWYRQAPGKQRDFVASITRDSTRTLESVKDRFIISRDNAKNTLYLQMNSLKPEDTAVYYCHAITSLGEYWGQGTQVTVSS
For the molecule B2, in experiment [2], the concentration for a half-maximal effect (EC50) worked out at 0.0592 nM.

B3: anti-humanized TfR1 single-domain antibody-Fc fusion antibody 7G5-hFC1 (Fc fusion)
chain (part 1 of 2): ESGGGSVQPGGSLRLSCAVSGSIFSIDTMAWYRQAPGKQRELVAAITKGGSRNYADSVKGRFTISRDNAKNTVYLQMNSLKPEDTAVYYCLADRLFRDRSWGQGTQVTVSS
Consider B3, for which the concentration giving a half-maximal response (EC50) in experiment [3] turned out to be 0.0724 nM.

B4: anti-humanized TfR1 single-domain antibody-Fc fusion antibody 7D10-hFC1 (Fc fusion)
chain (part 1 of 2): ESGGGLVQPGGSLRLSCATSGGTFEMYAMAWFRQAPGKDREGVAGFSWRDSSTTYYSDSVKGRFTISRDNAKNTVYLQMNSLKPEDTAVYYCAARPYVSRWSESSGYDYWGQGTQVTVSS
Turning to B4, the half-maximal effective concentration (EC50) in experiment [3] was 0.151 nM.

B5: anti-humanized TfR1 single-domain antibody-Fc fusion antibody 7G10-hFC1 (Fc fusion)
chain (part 1 of 2): ESGGGLVQAGASLKLSCNGSGRTFISYAMGWFRQAPGKQREFVAAERWSGSGIYYADSLKGRFTISRDNAKNTVYLEMNNLKPEDTAVYYCAAREGGLLHVATSYDYWGQGTQVTVSS
For the molecule B5, the 50% effective concentration (EC50) in experiment [3] is 0.0854 nM.

B6: anti-humanized TfR1 single-domain antibody-Fc fusion antibody 4C5-hFC1 (Fc fusion)
chain (part 1 of 2): ESGGGLVQPGESLRLSCAASGSIWSIYTMGWYRQAPGLQRDFVGSIAREGGRRYAESVKDRFTISRDNAKNTMYLQMNSLKREDTAVYYCNAITSLGEYWGQGTQVTVSS
Turning to B6, in experiment [2], the concentration giving a half-maximal response (EC50) was 0.0644 nM.

B7: anti-humanized TfR1 single-domain antibody-Fc fusion antibody 5D1-hFC1 (Fc fusion)
chain (part 1 of 2): ESGGGLVQPGESLRLSCVASGSIWSIYTMGWYRQAPGKQRDFVASITRDGGRRHAESVKDRFTISRDNAKNTLYLQMNSLKPEDTAVYSCLAITSLGEYWGQGTQVTVSS
Consider B7, for which, in experiment [3], the EC50 came out at 0.0595 nM.

B8: anti-humanized TfR1 single-domain antibody-Fc fusion antibody 7A3-hFC1 (Fc fusion)
chain (part 1 of 2): ESGGGLVQPGESLRLSCVASGSIWSIYTMGWYRQAPGKQRDFVASITRDSGRRYAESVKDRFTISRDNAKNTLYLQTNSLKPEDTAVYYCHAITSLGEYWGQGTQVTVSS
Turning to B8, the EC50 in experiment [3] was determined as 0.0521 nM.

B9: anti-humanized TfR1 single-domain antibody-Fc fusion antibody 8E10-hFC1 (Fc fusion)
chain (part 1 of 2): ESGGGLVQAGGSLRLSCAFSGPPFSTYGMGWFRQAPGKEREFVATISGSGFTTTYADSVKGRFTISRDNAKNTVYLQMNSLKPGDTAVYYCAAGVLDGTNWHEYDYWGQGTQVTVSS
Consider B9, for which the EC50 in experiment [1] turned out to be 0.0962 nM.

B10: anti-humanized TfR1 single-domain antibody-Fc fusion antibody 5D3-hFC1 (Fc fusion)
chain (part 1 of 2): ESGGGLVEPGGSLRLSCAASGNIFSINNMYWHRQAPGKQRELVGGITRGGITNYVDSVKGRFTISRDNAKNTVYLQMNSLKPEDTAVYFCNAHPWRLGIADYWGQGTQVTVSS
Consider B10, for which the EC50 in experiment [3] came out at 0.0861 nM.

B11: anti-humanized TfR1 single-domain antibody-Fc fusion antibody 5A3-hFC1 (Fc fusion)
chain (part 1 of 2): ESGGGLVQAGGSLTLSCAVSRRAFNTKAMGWFRQAPGKEREFVATISWSGFSTNYADSVKGRFTISRDNAKNTVYLQMNSLKPGDTAVYYCAAGVLDGTNWHEYDYWGQGTQVTVSS
For B11, in experiment [3], the EC50 was 0.0761 nM.
